Measured values reported in US20260001914A1, “MACROCYCLIC PEPTIDES TARGETING KRAS” (Merck Sharp & Dohme LLC, priority 2022, published 2026).
pEC50: −log10 of the molar value. *1 amine or outer side, *2 acyl side, *3 side chain or, on linkers, in order; H or OH if unused. Where a SMILES comes first, the peptide text is derived from it. Bridges are numbered along the chain shown (N, C = ends). [ ]: non-standard residue; d: D form. X19 = C[C@H](c1ccccc1)[C@@H](C(=O)[*:2])N(C)[*:1]; X23 = O=C([C@H](Cc1ccc(C(F)(F)F)nc1)N[*:1])[*:2]; Ala(pyrimidin-5-yl) = N[C@@H](Cc1cncnc1)C(=O)O; Phe(4-CH2NH2) = NCc1ccc(C[C@H](N)C(=O)O)cc1; X11 = CC(C)(F)CC[C@H](N[*:1])C(=O)[*:2]; X46 = O=C([C@H](Cc1cccnc1F)N[*:1])[*:2]; NMeAha = CN[C@@H](CCN=[N+]=[N-])C(=O)O; Phe(3-Me) = Cc1cccc(C[C@H](N)C(=O)O)c1; 1Nal = N[C@@H](Cc1cccc2ccccc12)C(=O)O; Phe(2-F) = N[C@@H](Cc1ccccc1F)C(=O)O; NMe3Pal = CN[C@@H](Cc1cccnc1)C(=O)O; X1 = O=C(C12CC(CN[*:1])(C1)C2)[*:2]; Ala(cPr) = N[C@@H](CC1CC1)C(=O)O; NMeF = CN[C@@H](Cc1ccccc1)C(=O)O; PhLac = O=C(O)[C@@H](O)Cc1ccccc1; 3Pal = N[C@@H](Cc1cccnc1)C(=O)O; d(αMeC) = C[C@@](N)(CS)C(=O)O; hLeu = CC(C)CC[C@H](N)C(=O)O; αMeC = C[C@](N)(CS)C(=O)O; NMeA = CN[C@@H](C)C(=O)O; Nle = CCCC[C@H](N)C(=O)O

Legend:
[1] = target: KRAS-G12D in AsPC-1 cells (UniProt P01116); experiment: cell-based or functional assay
[2] = target: Biotin-labeled KRAS-G12D protein (UniProt P01116-2 1-169, limits assumed, biotin label (site not stated); loaded with BODIPY-GDP); experiment: cell-based or functional assay
[3] = target: phosphorylation levels of ERK1/2 in AsPC-1 (homozygous KRAS-G12D) cells (Homo sapiens, UniProt P01116, G12D); experiment: Cellular phospho-ERK assay in AsPC-1 cells (Alpha Screen), assay medium without fetal bovine serum; type: cell-based; conditions: phospho-ERK AlphaScreen, 18 h;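 further: signal taken as phospho-ERK over total ERK per well, both detected in one multiplex bead assay, EC50 from four-parameter logistic fit of dose-response curves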

Compound | AlphaScreen @18 h, EC50 [1] [nM] | SOS assay EC50 [2] [nM] | pEC50 [3]
cyclo(FLac-NMeA-3Pal-Nle-Phe2F-hL-NMe3Pal-amBCP) (peptide) | 4650 | 2.17 | 
cyclo(FLac-NMeA-PyrimAla-cBuA-Phe26F2-hL-NMeF-amBCP) (peptide) | 356 |  | 
cyclo(FLac-NMeA-PyrimAla-Nle-Phe2F-Nle-NMe3Pal-SMeamBCP) (peptide) | 23400 | 33.5 | 
cyclo(FLac-NMeDabN3-4CF33Pal-Nle-Phe2F-Nle-NMe3Pal-amBCP) (peptide) | 6120 | 435 | 
cyclo(FLac-NMeA-PyrimAla-cBuA-Phe2F-Nle-NMe3Pal-amBCP) (peptide) | 45000 |  | 
cyclo(FLac-NMeA-PyrimAla-Nle-Phe2F-Nle-NMePhe3F-amBCP) (peptide) | 734 | 12.2 | 
cyclo(FLac-NMeNvalmid-PyrimAla-Nle-Phe2F-Nle-NMe3Pal-amBCP) (peptide) | > 50800 | 27.2 | 
cyclo(F-NMeDabN3-3Pal-NleLac-Phe2F-Nle-NMe3Pal-amBCP) (peptide) | > 50800 | 3880 | 
cyclo(F-R-3Pal-cBuA-NvaOMe-Nle-NMeF-aMeC1-C1Ac (peptide) | > 50800 | 4410 | 
cyclo(4F3Pal-NMeA-3Pal-Nle-Phe2F-Nle-NMe3Pal-amBCP) (peptide) | > 50800 | 1780 | 
cyclo(FLac-NMeA~PyrimAla-rF2Cba-Phe2F-Nle-NMe3Pal-amBCP) isomer 2 (peptide) | > 50800 | 8190 | 
cyclo(FLac-NMeA-PyrimAla-cPeA-Phe2F-hL-NMeF-amBCP) (peptide) | 285 | 4.13 | 
cyclo(FLac-NMeA-PyrimAla-Nle-Phe2F-Nle-NMe3Pal-amBCP) (peptide) | 13400 | 33.6 | 
cyclo(FLac-NMeA-PyrimAla-cBuA-Phe2F-hL3F-NMeF-amBCP) (peptide) | 674 | 1.87 | 
cyclo(FLac-NMeDabN3-3Pal-Nle-F2FLac-Nle-NMe3Pal-amBCP) (peptide) | 3480 | 5590 | 
cyclo(3Pal-NMeA-3Pal-Nle-Phe2F-Nle-NMe3Pal-amBCP) (peptide) | > 50800 | 3060 | 
cyclo(F-NMeR-3Pal-Nle-TyrOMe-LysN3-NMeF-tamcPr) (peptide) | > 50800 | 224 | 
cyclo(FLac-NMeA-PyrimAla-L-Phe2F-Nle-NMe3Pal-amBCP) (peptide) | > 50800 | 4.38 | 
cyclo(FLac-NMeA-4F3Pal-Nle-2Pal6F-Nle-NMeF-amBCP) (peptide) | > 50800 | 870 | 
cyclo(FLac-NMeNvalmid-4CF33Pal-Nle-Phe2F-Nle-NMeF-amBCP) isomer 1 (peptide) | > 50800 | 188 | 
cyclo(dF-R-Phe4Gn-Nle-TyrOMe-Nle-NMeF-c3amCblc) (peptide) | > 50800 | 17.3 | 
cyclo(FLac-NMeDabN3-PyrimAla-Nle-Phe2F-Nle-NMe3Pal-amBCP) (peptide) | 11600 | 80.9 | 
cyclo(FLac-R-3Pal-cBuA-TyrOMe-Ahp-NMeF-amBCP) (peptide) | > 50800 | 10.8 | 
cyclo(FLac-NMeA-PyrimAla-rF2Cba-Phe2F-Nle-NMe3Pal-amBCP) isomer 1 (peptide) | > 50800 | 236 | 

Compound | AlphaScreen @18 h, EC50 [1] [nM] | SOS assay EC50 [2] [nM] | pEC50 [3]
cyclo(FLac-NMeNvalmid-PyrimAla-Nle-F2FLac-Nle-NMe3Pal-amBCP) (peptide) | > 50800 | 1160 | 
cyclo(FLac-nMeSMe-3Pal-Nle-Phe2F-Nle-NMe3Pal-amBCP) (peptide) | > 50800 | 6410 | 
cyclo(FLac-NMeA-PyrimAla-cPeA-Phe2F-Nle-NMe3Pal-amBCP) (peptide) | 17400 | 22.3 | 
cyclo(FLac-NMeA-PyrimAla-Nle-Phe2F-Nle-NMeF-amBCP) (peptide) | 590 | 17.4 | 
cyclo(FLac-NMeA-PyrimAla-Nle-Phe2F-Nlecalken3Pal-amBCP) (peptide) | 11200 | 590 | 
cyclo(FLac-NMeA-4F3Pal-Nle-Phe2F-Nle-NMeF-amBCP) (peptide) | 589 | 72.4 | 
cyclo(Y-NMeA-3Pal-Nle-Phe2F-Nle-NMe3Pal-amBCP) (peptide) | 46400 | 440 | 
cyclo(FLac-NMeNvaF-3Pal-Nle-Phe2F-Nle-NMe3Pal-amBCP) (peptide) | 20700 | 297 | 
cyclo(FLac-NMeA-3Pal-Nle-Phe2F-Nle-NMeF-amBCP) (peptide) | 1440 | 50.3 | 
cyclo(F-NMeA-3Pal-Nle-Phe2F-Nle-NMeF-aMeC1-C1Ac) (peptide) | 21000 |  | 
cyclo(FLac-NMeNvalmid-4F3Pal-Nle-Phe2F-Nle-NMeF-amBCP) isomer 1 (peptide) | > 50800 | 101 | 
cyclo(FLac-NMeA-PyrimAla-cBuA-Phe2F-hcPrA-NMeF-amBCP) (peptide) | 437 | 4 | 
cyclo(FLac-NMeNvalmid-3Pal-Nle-Phe2F-Nle-NMe3Pal-c3amCblc) (peptide) | > 50800 | 758 | 
cyclo(FLac-NMeA-PyrimAla-cPrA-Phe2F-hcPrA-NMeF-amBCP) (peptide) | 615 | 2 | 
cyclo(FLac-NMeA-PyrimAla-NleF-Phe2F-Nle-NMeF-amBCP) (peptide) | 2030 | 2.43 | 
cyclo(FLac-NMeA-PyrimAla-Nle-Phe2F-Nle-NMePhe4F-amBCP) (peptide) | 994 | 12.5 | 
C[C@H](c1ccccc1)[C@H]1C(=O)NCC23CC(C2)(C3)C(=O)O[C@@H](Cc2ccccc2)C(=O)N(C)[C@@H](C)C(=O)N[C@@H](Cc2cncnc2)C(=O)N[C@@H](CC2CC2)C(=O)N[C@@H](Cc2ccccc2F)C(=O)N[C@@H](CCC(C)(C)F)C(=O)N1C [compound 341, cyclo(FLac-NMeA-PyrimAla-cPrA-Phe2F-hL3F-NMeRbMeF-amBCP)] (cyclo([Ala(cPr)][Phe(2-F)][X11][X19][X1][PhLac][NMeA][Ala(pyrimidin-5-yl)])) |  |  | < 4.29
CCCC[C@@H]1NC(=O)[C@H](Cc2cccnc2)NC(=O)[C@H](C)N(C)C(=O)[C@H](Cc2ccccc2)OC(=O)CSC[C@@](C)(C(N)=O)NC(=O)[C@H](Cc2cccnc2)N(C)C(=O)[C@H](CCCC)NC(=O)[C@H](Cc2ccccc2F)NC1=O [compound 398, cyclo(FLac-NMeA-3Pal-Nlc-Phe2F-Nle-NMe3Pal-aMeCl-ClAc)] ({CH2CO}-[PhLac][NMeA][3Pal][Nle][Phe(2-F)][Nle][NMe3Pal][αMeC]-NH2; thioether N-8) |  |  | 4.39
C[C@H]1C(=O)N[C@@H](Cc2cncnc2)C(=O)N[C@@H](CC2CC2)C(=O)N[C@@H](Cc2ccccc2F)C(=O)NC2CC/C=C\CC[C@@H](C(=O)NCC34CC(C3)(C4)C(=O)O[C@@H](Cc3ccccc3)C(=O)N1C)N(C)C2=O [SEQ ID NO: 182, cyclo(FLac-NMeA-PyrimAla-cPrA-Phe2F-Hag-NMeHag-amBCP)] |  |  | 4.39
CCCC[C@@H]1NC(=O)[C@H](Cc2ccc(C(F)(F)F)nc2)NC(=O)[C@H](CCN=[N+]=[N-])N(C)C(=O)[C@H](Cc2ccccc2)OC(=O)C23CC(CNC(=O)[C@H](Cc4cccnc4)N(C)C(=O)[C@H](CCCC)NC(=O)[C@H](Cc4ccccc4F)NC1=O)(C2)C3 [compound 241, cyclo(FLac-NMeDabN3-4CF33Pal-Nle-Phe2F-Nle-NMe3Pal-amBCP)] (cyclo([NMe3Pal][X1][PhLac][NMeAha][X23][Nle][Phe(2-F)][Nle])) |  |  | 5.21
CCCCC[C@@H]1NC(=O)[C@H](Cc2ccc(OC)cc2)NC(=O)[C@H](CC2CCC2)NC(=O)[C@H](Cc2ccc(C)nc2)NC(=O)[C@H](CCCNC(=N)N)NC(=O)[C@H](Cc2ccccc2)NC(=O)CSC[C@@](C)(C(N)=O)NC(=O)[C@H](Cc2ccccc2)N(C)C1=O [compound 364, cyclo(F-R-4Me3Pal-cBuA-TyrOMe-Ahp-NMeF-aMeCl-ClAc)] |  |  | < 4.29
CCCC[C@@H]1NC(=O)[C@H](Cc2ccc(CN)cc2)NC(=O)[C@H](CCCNC(=N)N)NC(=O)[C@H](Cc2cccc3ccccc23)NC(=O)CSC[C@](C)(C(=O)O)NC(=O)[C@H](Cc2ccccc2)N(C)C(=O)[C@H](CCCC)NC(=O)[C@H](Cc2ccc(O)cc2)NC1=O [compound 144, cyclo(1Nal-R-Phe4CH2NH2-Nle-Y-Nle-NMeF-daMeC-ClAc)] ({CH2CO}-[1Nal]R[Phe(4-CH2NH2)][Nle]Y[Nle][NMeF][d(αMeC)]-OH; thioether N-8) |  |  | < 4.29
CCCC[C@@H]1NC(=O)[C@H](Cc2cccnc2)NC(=O)[C@H](C)N(C)C(=O)[C@H](Cc2cccc(C)c2)NC(=O)C23CC(CNC(=O)[C@H](Cc4cccnc4)N(C)C(=O)[C@H](CCCC)NC(=O)[C@H](Cc4ccccc4F)NC1=O)(C2)C3 [compound 166, cyclo(Phe3Me-NMeA-3Pal-Nle-Phe2F-Nle-NMe3Pal-amBCP)] (cyclo([3Pal][Nle][Phe(2-F)][Nle][NMe3Pal][X1][Phe(3-Me)][NMeA])) |  |  | 4.49
CC(C)CC[C@@H]1NC(=O)[C@H](Cc2cccnc2F)NC(=O)[C@H](CC2CC2)NC(=O)[C@H](Cc2cncnc2)NC(=O)[C@H](C)N(C)C(=O)[C@H](Cc2ccccc2)OC(=O)C23CC(CNC(=O)[C@H](Cc4ccccc4)N(C)C1=O)(C2)C3 [compound 215, cyclo(FLac-NMeA-PyrimAla-cPrA-3Pal2F-hL-NMeF-amBCP)] (cyclo([Ala(cPr)][X46][hLeu][NMeF][X1][PhLac][NMeA][Ala(pyrimidin-5-yl)])) |  |  | 5.38
